Experimental data taken from patent publication EP2239269B1, “Use of peptides derived from copolymer-1 as molecular weight markers” (YEDA RESEARCH AND DEVELOPMENT CO., LTD., priority 1998, dated 2013).

How the values were obtained:
Format in all cases: physicochemical
[1] = Circular dichroism, molar ellipticity (Jobin-Yvon CD spectrophotometer); design: unit not given here
From the text: Circular dichroism - Structural similarity between the molecular weight markers and glatiramer acetate is a pre-requisite for an appropriate calibration of a molecular sizing column. Differences in polypeptide structure may result in different hydrodynamic size and consequently in altered retention time in the chromatographic system. The ellipticity, determined by circular dichroism, serves as a measure of the secondary structure of a polypeptide. When the ellipticity of the molecular weight markers and glatiramer acetate is similar, the structures of the two will be similar.
The molar ellipticity of the polypeptides was determined on a Jobin-Yvon CD spectrophotometer. […] Note that while the exact molecular weight for the TV-markers was plotted, the averace-by-number molecular weight for the glatiramer acetate was used in the plot.

[2] = Stability of marker solutions stored frozen at -10 to -20°C, followed by retention time at column calibration; design: unit not given here; conditions: stored at -10° to -20°C
Method: In addition, solutions of the markers were stored for up to 3 ½ months under various storage conditions (2-8 °C, -10 to -20°C, with/without azide).

[3] = Stability of markers in solution at room temperature, followed by peak retention time on chromatography; conditions: for Peak Retention Time, Average: average of the four analyses over 24 hours, room temperature; for Peak Retention Time: solution at room temperature, 0.1 mg/ml
Method: Stability of markers in solution - TV-markers were chromatographed four times over a period of 24 hours. All markers were kept as solutions at room temperature and were analyzed at 8 hour intervals.

[4] = date of calibration 04-step-97, interval 105 days
[5] = date of calibration 09-Jul-97, interval 48 days
[6] = date of calibration 22-May-97, interval -
[7] = 1st of four analyses at 8 hour intervals over 24 hours
[8] = 2nd of four analyses at 8 hour intervals
[9] = 3rd of four analyses at 8 hour intervals
[10] = 4th of four analyses at 8 hour intervals

B1: TV-109: 109-mer sequence-defined polypeptide molecular weight marker, molecular weight = 11727 daltons (peptide)
chain: AKKYAKKAEKAYAKKAKAAKEKKAYAKKEAKAYKAAEAKKKAKAEAKKYAKEAAKAKKEAYKAEAKKYAKAAKAEKKEYAAAEAKKAEAAKAYKAEAAKAAAKEAAYEA
- M-ellip. (210nm) [1]: -6.818
- RT [2, 4]: 23.583
- RT [2, 5]: 23.650
- RT [2, 6]: 23.500
- Peak Retention Time, Average [3]: 24.842
- Peak Retention Time [3, 7]: 24.783 min
- Peak Retention Time [3, 8]: 24.850 min
- Peak Retention Time [3, 9]: 24.883 min
- Peak Retention Time [3, 10]: 24.850 min

B2: TV-66: 66-mer sequence-defined polypeptide molecular weight marker of Ala, Glu, Tyr, Lys, molecular weight = 7040 daltons (peptide)
chain: AKKYAKKEKAYAKAKKAEAKAAKKAKAEAKKYAKAAKAEKKEYAAAEAKYKAEAAKAAAKEAAYEA
- M-ellip. (210nm) [1]: -3.5172
- RT [2, 4]: 26.300
- RT [2, 5]: 26.317
- RT [2, 6]: 26.233
- Peak Retention Time, Average [3]: 27.404
- Peak Retention Time [3, 7]: 27.400 min
- Peak Retention Time [3, 8]: 27.350 min
- Peak Retention Time [3, 9]: 27.433 min
- Peak Retention Time [3, 10]: 27.433 min

B3: TV-86: 86-mer sequence-defined polypeptide molecular weight marker of Ala, Glu, Tyr, Lys, molecular weight = 9220 daltons (peptide)
chain: AKKYAKKEKAYAKKAEKAAKKAEAKAYKAAEAKKKAKAEAKKYAKAAKAEKKEYAAAEAKYKAEAAKKAYKAEAAKAAAKEAAYEA
- M-ellip. (210nm) [1]: -5.4546
- RT [2, 4]: 24.950
- RT [2, 5]: 25.017
- RT [2, 6]: 24.883
- Peak Retention Time, Average [3]: 26.129
- Peak Retention Time [3, 7]: 26.117 min
- Peak Retention Time [3, 8]: 26.100 min
- Peak Retention Time [3, 9]: 26.150 min
- Peak Retention Time [3, 10]: 26.150 min

B4: TV-77: 77-mer sequence-defined polypeptide molecular weight marker of Ala, Glu, Tyr, Lys, molecular weight = 8259 daltons (peptide)
chain: AKKYAKKEKAYAKKAEKAAKKAEAKAYKAAEAKKKAKAEAKKYAKAAKAEKKEYAAAEAKYKAEAAKAAAKEAAYEA
- M-ellip. (210nm) [1]: -4.8365
- RT [2, 4]: 25.550
- RT [2, 5]: 25.617
- RT [2, 6]: 25.467
- Peak Retention Time, Average [3]: 26.746
- Peak Retention Time [3, 7]: 26.750 min
- Peak Retention Time [3, 8]: 26.700 min
- Peak Retention Time [3, 9]: 26.750 min
- Peak Retention Time [3, 10]: 26.783 min
